Test results from paper PMC4712668 (RNA, 2016).

T1: CLIP-6Myc-FLAG-TEV-Myc-Drosha (human, UniProt Q9NRR4 1-1374, CLIP-surface 547 or CLIP-surface 488 fluorophore on the CLIP tag)
T1 sequence: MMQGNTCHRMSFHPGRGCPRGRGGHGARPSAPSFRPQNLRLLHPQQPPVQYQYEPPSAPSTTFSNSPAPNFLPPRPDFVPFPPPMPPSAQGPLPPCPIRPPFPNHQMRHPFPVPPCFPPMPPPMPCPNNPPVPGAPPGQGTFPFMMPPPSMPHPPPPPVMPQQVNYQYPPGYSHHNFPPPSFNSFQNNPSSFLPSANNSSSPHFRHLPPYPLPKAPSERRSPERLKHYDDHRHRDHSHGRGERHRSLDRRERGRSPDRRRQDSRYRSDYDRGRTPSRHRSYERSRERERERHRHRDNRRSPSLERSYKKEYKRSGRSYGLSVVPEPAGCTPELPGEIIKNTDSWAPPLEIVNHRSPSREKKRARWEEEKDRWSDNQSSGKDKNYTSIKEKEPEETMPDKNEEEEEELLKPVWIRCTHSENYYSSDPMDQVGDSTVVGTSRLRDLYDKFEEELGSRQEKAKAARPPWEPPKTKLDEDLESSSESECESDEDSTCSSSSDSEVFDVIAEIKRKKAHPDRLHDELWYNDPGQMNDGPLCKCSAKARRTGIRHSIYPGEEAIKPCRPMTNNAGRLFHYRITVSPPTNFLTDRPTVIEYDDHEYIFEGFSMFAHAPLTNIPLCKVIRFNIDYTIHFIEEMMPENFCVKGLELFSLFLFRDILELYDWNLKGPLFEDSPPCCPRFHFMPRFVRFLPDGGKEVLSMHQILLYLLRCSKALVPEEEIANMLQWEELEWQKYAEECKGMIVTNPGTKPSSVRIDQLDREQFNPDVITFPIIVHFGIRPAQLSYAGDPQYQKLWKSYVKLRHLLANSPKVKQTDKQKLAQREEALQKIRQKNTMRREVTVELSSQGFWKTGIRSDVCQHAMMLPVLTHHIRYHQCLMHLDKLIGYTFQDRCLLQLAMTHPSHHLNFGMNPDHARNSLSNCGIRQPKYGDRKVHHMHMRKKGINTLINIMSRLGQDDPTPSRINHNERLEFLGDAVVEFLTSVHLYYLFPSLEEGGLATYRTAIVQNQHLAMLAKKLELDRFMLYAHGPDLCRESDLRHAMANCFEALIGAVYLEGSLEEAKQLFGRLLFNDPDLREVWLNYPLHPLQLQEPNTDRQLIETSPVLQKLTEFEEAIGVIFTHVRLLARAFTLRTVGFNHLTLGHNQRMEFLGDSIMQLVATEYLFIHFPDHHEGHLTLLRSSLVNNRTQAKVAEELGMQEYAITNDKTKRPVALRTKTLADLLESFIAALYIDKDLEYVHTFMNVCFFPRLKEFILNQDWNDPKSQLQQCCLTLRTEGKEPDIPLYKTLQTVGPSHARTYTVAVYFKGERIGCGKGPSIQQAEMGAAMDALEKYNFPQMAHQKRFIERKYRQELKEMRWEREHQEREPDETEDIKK


What was measured:
[1] = target: T1, CLIP-6Myc-FLAG-TEV-Myc-Drosha; assay: single-molecule immunoprecipitation with subunit counting by photobleaching
[2] = target: the molecule itself; assay: as above
[3] = target: the molecule itself; assay: SEC + other: glycerol gradient centrifugation

stoichiometry N [1] [DGCR8 per Drosha]	Binder	stoichiometry N [2] [DGCR8 per complex]	stoichiometry N [3] [SNAP-DGCR8 per complex]
2	SNAP-DGCR8 (natural protein, SNAP-surface Alexa fluor 546 or SNAP-surface Alexa fluor 647 on the SNAP tag) METDESPSPLPCGPAGEAVMESRARPFQALPREQSPPPPLQTSSGAEVMDVGSGGDGQSELPAEDPFNFYGASLLSKGSFSKGRLLIDPNCSGHSPRTARHAPAVRKFSPDLKLLKDVKISVSFTESCRSKDRKVLYTGAERDVRAECGLLLSPVSGDVHACPFGGSVGDGVGIGGESADKKDEENELDQEKRVEYAVLDELEDFTDNLELDEEGAGGFTAKAIVQRDRVDEEALNFPYEDDFDNDVDALLEEGLCAPKKRRTEEKYGGDSDHPSDGETSVQPMMTKIKTVLKSRGRPPTEPLPDGWIMTFHNSGVPVYLHRESRVVTWSRPYFLGTGSIRKHDPPLSSIPCLHYKKMKDNEEREQSSDLTPSGDVSPVKPLSRSAELEFPLDEPDSMGADPGPPDEKDPLGAEAAPGALGQVKAKVEVCKDESVDLEEFRSYLEKRFDFEQVTVKKFRTWAERRQFNREMKRKQAESERPILPANQKLITLSVQDAPTKKEFVINPNGKSEVCILHEYMQRVLKVRPVYNFFECENPSEPFGASVTIDGVTYGSGTASSKKLAKNKAARATLEILIPDFVKQTSEEKPKDSEELEYFNHISIEDSRVYELTSKAGLLSPYQILHECLKRNHGMGDTSIKFEVVPGKNQKSEYVMACGKHTVRGWCKNKRVGKQLASQKILQLLHPHVKNWGSLLRMYGRESSKMVKQETSDKSVIELQQYAKKNKPNLHILSKLQEEMKRLAEEREETRKKPKMSIVASAQPGGEPLCTVDV	2	–
–	FLAG-SNAP-DGCR8 (natural protein, SNAP-surface 546 Alexa fluorophore on the SNAP tag in a portion of the sample) METDESPSPLPCGPAGEAVMESRARPFQALPREQSPPPPLQTSSGAEVMDVGSGGDGQSELPAEDPFNFYGASLLSKGSFSKGRLLIDPNCSGHSPRTARHAPAVRKFSPDLKLLKDVKISVSFTESCRSKDRKVLYTGAERDVRAECGLLLSPVSGDVHACPFGGSVGDGVGIGGESADKKDEENELDQEKRVEYAVLDELEDFTDNLELDEEGAGGFTAKAIVQRDRVDEEALNFPYEDDFDNDVDALLEEGLCAPKKRRTEEKYGGDSDHPSDGETSVQPMMTKIKTVLKSRGRPPTEPLPDGWIMTFHNSGVPVYLHRESRVVTWSRPYFLGTGSIRKHDPPLSSIPCLHYKKMKDNEEREQSSDLTPSGDVSPVKPLSRSAELEFPLDEPDSMGADPGPPDEKDPLGAEAAPGALGQVKAKVEVCKDESVDLEEFRSYLEKRFDFEQVTVKKFRTWAERRQFNREMKRKQAESERPILPANQKLITLSVQDAPTKKEFVINPNGKSEVCILHEYMQRVLKVRPVYNFFECENPSEPFGASVTIDGVTYGSGTASSKKLAKNKAARATLEILIPDFVKQTSEEKPKDSEELEYFNHISIEDSRVYELTSKAGLLSPYQILHECLKRNHGMGDTSIKFEVVPGKNQKSEYVMACGKHTVRGWCKNKRVGKQLASQKILQLLHPHVKNWGSLLRMYGRESSKMVKQETSDKSVIELQQYAKKNKPNLHILSKLQEEMKRLAEEREETRKKPKMSIVASAQPGGEPLCTVDV	–	2
